Numbered stars: 1 amine (or outer) side, 2 acyl side, 3 side chain; on linkers, the order of the positions; unused ones are H or OH. Square brackets hold non-standard residues; d marks the D form. Side chains are listed from the residue outwards. Peptide text beside a SMILES is read from it. * marks the point of attachment. Ethylenediamine = C(CN[*:2])N[*:1]; Hyp = O=C(O)[C@@H]1C[C@@H](O)CN1; Phg = N[C@H](C(=O)O)c1ccccc1; CO = O=C([*:1])[*:2]; Bn = c1ccc(C*)cc1
Legend:
[1] = molecular target: human somatostatin receptor 3 (human) (UniProt P32745)
human somatostatin receptor 3 (human), sequence (P32745 whole entry): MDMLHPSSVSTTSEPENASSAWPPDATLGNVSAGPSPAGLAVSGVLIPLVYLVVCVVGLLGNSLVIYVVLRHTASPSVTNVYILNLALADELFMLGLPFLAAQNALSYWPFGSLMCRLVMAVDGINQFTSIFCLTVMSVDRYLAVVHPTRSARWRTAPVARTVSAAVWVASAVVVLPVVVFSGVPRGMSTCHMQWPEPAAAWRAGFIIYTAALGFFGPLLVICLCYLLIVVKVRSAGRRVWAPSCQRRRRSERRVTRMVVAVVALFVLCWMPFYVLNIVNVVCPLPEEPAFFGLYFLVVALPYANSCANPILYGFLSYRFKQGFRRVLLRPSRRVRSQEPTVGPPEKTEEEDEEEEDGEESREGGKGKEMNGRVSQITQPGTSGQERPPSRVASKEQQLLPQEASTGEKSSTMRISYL

[2] = molecular target: human somatostatin receptor 5 (human) (UniProt P35346)
human somatostatin receptor 5 (human), sequence (P35346 whole entry): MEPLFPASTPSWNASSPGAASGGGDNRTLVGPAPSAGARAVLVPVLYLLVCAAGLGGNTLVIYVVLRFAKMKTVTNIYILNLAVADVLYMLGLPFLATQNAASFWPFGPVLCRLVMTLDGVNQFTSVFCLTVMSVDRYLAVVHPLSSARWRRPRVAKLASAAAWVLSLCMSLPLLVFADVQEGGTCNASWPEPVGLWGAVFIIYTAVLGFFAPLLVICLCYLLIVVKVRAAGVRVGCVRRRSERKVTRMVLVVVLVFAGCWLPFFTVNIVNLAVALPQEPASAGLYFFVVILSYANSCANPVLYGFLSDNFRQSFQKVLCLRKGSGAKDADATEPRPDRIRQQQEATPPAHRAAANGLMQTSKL

[3] = molecular target: human somatostatin receptor 1 (human) (UniProt P30872); experiment: radioligand binding; competition with 3-[125I]iodotyrosyl11 somatostatin-14 on membrane extracts of CHO-K1 cells expressing the human receptor; agonist 10^-11 to 3 x 10^-7 M, n = 2; 60 min at 25 °C, filtered and counted
human somatostatin receptor 1 (human), sequence (P30872 whole entry): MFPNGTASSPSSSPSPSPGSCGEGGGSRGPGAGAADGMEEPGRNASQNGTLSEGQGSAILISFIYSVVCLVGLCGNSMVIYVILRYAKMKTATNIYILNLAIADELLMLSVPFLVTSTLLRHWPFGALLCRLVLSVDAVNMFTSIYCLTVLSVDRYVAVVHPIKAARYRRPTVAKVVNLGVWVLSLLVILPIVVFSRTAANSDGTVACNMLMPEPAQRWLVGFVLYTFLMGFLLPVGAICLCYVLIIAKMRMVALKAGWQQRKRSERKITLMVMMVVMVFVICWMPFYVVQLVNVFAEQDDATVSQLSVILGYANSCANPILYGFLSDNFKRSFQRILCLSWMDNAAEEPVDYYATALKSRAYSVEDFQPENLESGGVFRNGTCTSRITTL

[4] = molecular target: human somatostatin receptor 2 (human) (UniProt P30874); experiment: as above
human somatostatin receptor 2 (human), sequence (P30874 whole entry): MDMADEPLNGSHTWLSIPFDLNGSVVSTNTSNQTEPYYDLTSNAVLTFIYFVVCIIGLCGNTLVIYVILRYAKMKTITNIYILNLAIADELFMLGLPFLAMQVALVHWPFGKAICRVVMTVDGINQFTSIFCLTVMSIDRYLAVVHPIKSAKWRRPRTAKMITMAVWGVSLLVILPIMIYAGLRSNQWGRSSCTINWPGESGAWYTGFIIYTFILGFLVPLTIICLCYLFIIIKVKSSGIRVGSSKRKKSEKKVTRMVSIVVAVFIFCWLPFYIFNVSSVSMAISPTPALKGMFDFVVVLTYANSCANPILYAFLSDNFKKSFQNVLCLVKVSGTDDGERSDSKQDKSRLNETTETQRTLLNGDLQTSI

[5] = molecular target: human somatostatin receptor 3 (human) (UniProt P32745); experiment: as above
[6] = molecular target: human somatostatin receptor 5 (human) (UniProt P35346); experiment: as above
[7] = species, matrix, method and reference not given; cited from earlier work

For Pasireotide (peptide), the EC50 of GIRK2 channel activation via SSTR3 in transfected HEK293 cells (fluorescence membrane potential assay) [1] was 63 nM, the receptor internalization in U2OS cells transfected with SSTR3-tGFP, 10^-9 to 10^-5 M, 3 h; the cell gives 10^-5 M (10^-6 M) (% of activity) [1] was 46.3 and the EC50 of GIRK2 channel activation via SSTR5 in transfected HEK293 cells (fluorescence membrane potential assay) [2] was 16.5 nM. For the same molecule, the receptor internalization in U2OS cells transfected with SSTR5-tGFP, 10^-9 to 10^-5 M, 7 h; the cell gives 10^-5 M (10^-6 M) (% of activity) [2] was 43.9, the IC50 [3] was 43.9 nM and the IC50 [4] was 5.5 nM. It also gave an IC50 [5] of 2.73 nM and an IC50 [6] of 0.37 nM.

In the case of `NCCCC[C@@H]1NC(=O)[C@@H](Cc2c[nH]c3ccccc23)NC(=O)[C@H](c2ccccc2)NC(=O)[C@@H]2C[C@@H](OC(=O)NCCN)CN2C(=O)[C@H](Cc2ccccc2)NC(=O)[C@H](Cc2ccc(OCc3ccccc3)cc2)NC1=O` [Pasireotide] (cyclo([Hyp]([CO-Ethylenediamine])[Phg][dW]KY(Bn)F)), the Half-time life [7] is listed as 18 h.

In the case of `C[C@H](N)C(=O)NCC(=O)N[C@H]1CSSC[C@@H](C(=O)O)NC(=O)[C@H](CO)NC(=O)[C@H]([C@@H](C)O)NC(=O)[C@H](Cc2ccccc2)NC(=O)[C@H]([C@@H](C)O)NC(=O)[C@H](CCCCN)NC(=O)[C@H](Cc2c[nH]c3ccccc23)NC(=O)[C@H](Cc2ccccc2)NC(=O)[C@H](Cc2ccccc2)NC(=O)[C@H](CC(N)=O)NC(=O)[C@H](CCCCN)NC1=O` [SST-14], the Half-time life [7] is listed as 0.0417 h.

Molecule Octreotide (peptide) has a receptor internalization in U2OS cells transfected with SSTR5-tGFP, 10^-9 to 10^-5 M, 7 h; the cell gives 10^-5 M (10^-6 M) (% of activity) [2] of 39.3.

In the case of `C[C@@H](O)[C@@H]1NC(=O)[C@H](CCCCN)NC(=O)[C@@H](Cc2c[nH]c3ccccc23)NC(=O)[C@H](Cc2ccccc2)NC(=O)[C@@H](NC(=O)[C@H](N)Cc2ccccc2)CSSC[C@@H](C(=O)N[C@H](CO)[C@@H](C)O)NC1=O` [Octreotide], the Half-time life [7] is listed as 2 h.

For `CSCC[C@H](NC(=O)[C@H](C)NC(=O)[C@@H]1CCCN1C(=O)[C@H](CC(N)=O)NC(=O)[C@H](CO)NC(=O)[C@H](CC(N)=O)NC(=O)[C@H](C)NC(=O)[C@@H](N)CO)C(=O)N[C@@H](C)C(=O)N1CCC[C@H]1C(=O)N[C@@H](CCCNC(=N)N)C(=O)N[C@@H](CCC(=O)O)C(=O)N[C@@H](CCCNC(=N)N)C(=O)N[C@@H](CCCCN)C(=O)N[C@@H](C)C(=O)NCC(=O)N[C@H]1CSSC[C@@H](C(=O)O)NC(=O)[C@H](CO)NC(=O)[C@H]([C@@H](C)O)NC(=O)[C@H](Cc2ccccc2)NC(=O)[C@H]([C@@H](C)O)NC(=O)[C@H](CCCCN)NC(=O)[C@H](Cc2c[nH]c3ccccc23)NC(=O)[C@H](Cc2ccccc2)NC(=O)[C@H](Cc2ccccc2)NC(=O)[C@H](CC(N)=O)NC(=O)[C@H](CCCCN)NC1=O` [SST-28], the Half-time life [7] is given as 0.0333 h.
